Residue numbers refer to the chain shown, from its start.

This is an account of results in patent US20250059275A1 (SHANGHAI NIGENE BIOLOGICAL SCIENCE AND TECHNOLOGY, published 2025).

B1: JHH4D035a (antibody, V domains shown)
VH: EVQLVESGGGLVQPGRSLRLSCAASGFTFDDFAMHWVRQAPGKGLEWVSGISWNGIGIGYADSVKGRFTISRDNAKNSLYLQMNSLRAEDTALYFCAKDKGLRRYYGMDVWGQGITVIVSS
VL: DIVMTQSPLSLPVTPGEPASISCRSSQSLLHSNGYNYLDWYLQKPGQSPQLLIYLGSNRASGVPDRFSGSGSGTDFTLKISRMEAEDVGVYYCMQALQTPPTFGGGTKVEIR
notes: Fully human antibody from TC-mAb mice
B2: JHH4E061a (antibody, V domains shown)
VH: B1 VH with V12I, R19T, A23V, F32Y, Y80I, A88I, F95Y, I115T, I118T
VL: EIVMTQSPLSLPVTPGEPASISCRSSRSLLHSNGYNYLDWYLQKPGQSPQLLIYLGSNRASGVPDRFSGSGSGTDFTLKINRVEAEDVGVYYCMQALQTPPTFGGGTKVEIK
notes: as for B1
B3: JHH4A042-H3 (antibody, V domains shown)
VH: QVQLQQSGPGLVKPSQTLSLTCAISGDSVSSNSAAWNWIRQSPSRGLEWLGRTYFRSKWYNDYAVSVKSRITINPDTSKNQFSLQLNSMTPEDTAVYYCARERALYDILAGSFDYWGQGTLVTVSS
VL: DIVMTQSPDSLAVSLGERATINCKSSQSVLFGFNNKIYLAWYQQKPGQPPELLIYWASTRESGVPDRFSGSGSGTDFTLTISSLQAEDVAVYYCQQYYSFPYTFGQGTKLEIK
B4: JHH4A042-H7 (antibody, V domains shown)
VH: B3 VH with A35V, F55Y
VL: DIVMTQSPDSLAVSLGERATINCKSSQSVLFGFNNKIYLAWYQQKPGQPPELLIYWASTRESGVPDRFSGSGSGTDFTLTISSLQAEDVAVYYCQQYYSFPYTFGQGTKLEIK
B5: JHH1B2-8C (antibody, V domains shown)
VH: QVQLQQSGPGLVKPSQTLSLTCAISGDSVSSNSAAWNWIRQSPSRGLEWLGRTYYRSKWYNDYAVSVKSRITINPDTSKNQFSLQLNSVTPEDTAVYYCAREGVLRYFDWLSGAFDIWGQGTMVTVSS
VL: not shown
B6: JHH4B030a (antibody, V domains shown)
VH: QVQLQQSGPGLVKPSQTLSLTCAISGDSVSSNSAAWNWIRQSPSRGLEWLGRTYYRSKWYNDYAVSVKSRITINPDTSKNQFSLQLNSVTPEDTAVYYCARERGTYYDILTGDFDYWGQGTLVTVSS
VL: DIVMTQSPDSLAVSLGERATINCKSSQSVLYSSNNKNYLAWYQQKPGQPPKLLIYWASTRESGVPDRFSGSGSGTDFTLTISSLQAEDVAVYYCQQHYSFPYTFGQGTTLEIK
B7: JHH4B037a (antibody, V domains shown)
VH: EVQLVESGGGLVQPGRSLRLSCEASGFSFDDYAMHWVRQAPGKGLEWVSGISWNSVTIGYADSVKGRFTISRDNAKNSLYLEMNSLRTEDTALYYCAKELPTYRYYALDGWGQGTAVTVSS
VL: not shown
B8: JHH4A057 (antibody, V domains shown)
VH: QVQLVQSGSELKKPGASVKVSCKASGYTLTSHALNWVRQAPGQGLEWMGWINTNTGNPTYVQGFTGRFVFSLDTSVSTAYLQISSLKAEDTAVYYCARGYSSPPRMDVWGQGTTVTVSS
VL: EIVLTQSPGTLFLSPGERATLSCRASQSVSRNYLVWYQQKPGQAPRLLIYGASTRATGIPDRFSGSGSGTDFTLTIRRLEPEDFALYYCQQYGSSPFTFGQGTKLEIN
B9: JHH4B056a (antibody, V domains shown)
VH: B1 VH with F32Y, F95Y, K100G, L102D, R103Y, R104H, I115T, I118T
VL: not shown
B10: JHH4A063 (antibody, V domains shown)
VH: EVQLVESGGGLVQPGRSLRLSCTASGFNFDDYGMHWVRQAPGKGLEWVSGISWNSISIGSADSVKGRFTISRDNAKNSLYLQMNSLRPEDTALYYCAKDGGDHYYYGMDVWGQGTTVTVSS
VL: B2 VL with E1D, V3M, R27Q, N36K, D39N, Q50L, N81S, P101L
notes: also called 4A063-hIgG1

In the first test the target is T1, human TIGIT-HIS (Biointron, BI120) (human, UniProt Q495A1 22-141, limits assumed).
T1 construct: also called recombinant huTIGIT protein; recombinant human TIGIT protein; not shown: His tag
T1 sequence (looked up): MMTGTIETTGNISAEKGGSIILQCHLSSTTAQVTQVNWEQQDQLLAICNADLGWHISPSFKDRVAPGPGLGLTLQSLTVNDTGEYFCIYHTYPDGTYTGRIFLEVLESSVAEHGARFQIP
The experiment in a line: Octet BLI tandem epitope competition, TIGIT-HIS loaded on the sensor, first antibody step. On the technique in general: Biolayer interferometry detects binding as a change in optical thickness at a sensor tip.
Regarding B1, the binding result is reported as “binds”.

On to B2, for which the binding result was “binds”.

The next test addresses T2, human TIGIT expressed on CHO-K1 cells (CHO-huTIGIT) (human, UniProt Q495A1 22-244).
T2 construct: whole, on cells; also called CHO-huTIGIT-eGFP; human TIGIT-expressing CHO cells
T2 sequence (looked up): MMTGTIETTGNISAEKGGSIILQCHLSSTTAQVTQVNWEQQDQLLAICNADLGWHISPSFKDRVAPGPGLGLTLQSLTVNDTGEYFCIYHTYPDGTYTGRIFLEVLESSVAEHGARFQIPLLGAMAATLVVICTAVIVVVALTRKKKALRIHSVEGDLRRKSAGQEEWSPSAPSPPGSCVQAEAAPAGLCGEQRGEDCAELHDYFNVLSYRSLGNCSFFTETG
The experiment in a line: flow cytometry blocking assay on CHO-huTIGIT-eGFP cells; blocked ligand: biotinylated human CD155-Fc. On the procedure: (§1) CHO-huTIGIT-eGFP cells were implanted in V-bottom 96 well plates. The antibodies of Example 2 and reference antibodies were diluted to different concentrations respectively and added (100 μL/well) to the 96 well plate covered with cells (100%)), incubated at 4° C. for 1 hour.
(§2) Washed the cells by adding 200 μL/well washing buffer, and centrifuged at 1600 rpm (˜260×g), 4° C. for 3 minutes, and discarded the supernatant, repeated twice. […] (on ice) for 1 hour. Add 30 μL washing buffer contains streptavidin-594 (f.c.=10 μg/ml) into the well, then the cells were incubated at 4° C. for 30 minutes. Wash once and transfer the cells to a flat bottom 96 well plate, and analyze the cells with CytoFLEX S. Take the logarithm of antibody concentration (μg/mL) with the base of 10 as the abscissa and the intermediate fluorescence value corresponding to each antibody concentration as the ordinate.
A general note: Flow cytometry measures light scatter and fluorescence of single cells or particles in a stream.
Take B3: the “IC50 (read off the curve)” value was approximately 0.8 µg/mL.

For the molecule B4, the “IC50 (read off the curve)” value is approximately 1 µg/mL.

For B5, the “IC50 (read off the curve)” value was approximately 1 µg/mL.

For the molecule B6, the “IC50 (read off the curve)” value was approximately 0.8 µg/mL.

On to B7, for which the “IC50 (read off the curve)” value is approximately 0.8 µg/mL.

For B8, the “IC50 (read off the curve)” value was approximately 0.9 µg/mL.

Take B9: the “IC50 (read off the curve)” value was approximately 1 µg/mL.

With B10, the “IC50 (read off the curve)” value is approximately 0.5 µg/mL.

Another test deals with T3, cynomolgus monkey TIGIT expressed on CHO-K1 cells (CHO-mkTIGIT) (cynomolgus monkey, UniProt A0A7N9I9V4 89-312).
T3 construct: whole, on cells
T3 sequence (A0A7N9I9V4 entry or part of it): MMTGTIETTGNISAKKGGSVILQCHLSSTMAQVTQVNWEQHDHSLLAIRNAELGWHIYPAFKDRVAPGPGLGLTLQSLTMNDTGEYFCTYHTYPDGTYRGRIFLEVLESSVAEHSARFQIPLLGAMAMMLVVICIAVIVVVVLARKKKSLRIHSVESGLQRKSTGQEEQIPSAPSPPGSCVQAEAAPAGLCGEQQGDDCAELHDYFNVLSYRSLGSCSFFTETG
Description: flow cytometry on CHO-mkTIGIT cells, anti-human IgG Fc Alexa Fluor 594. The method, then:
(§3) CHO-huTIGIT cells or CHO-mkTIGIT cells were implanted in 96 well plates. The antibodies of Example 2 were diluted to different concentrations respectively and added to 96 well plates covered with cells (100 μL/well), incubated at 4° C. (on ice) for 1 hour.
(§4) Washed the cells by adding 200 μL/well washing buffer, and centrifuged at 1600 rpm (˜260×g), 4° C. for 3 minutes, and discarded the supernatant, repeated twice. Add 30 μL washing buffer containing anti-human IgG secondary antibody (Jackson ImmunoResearch, #109-585-190, Alexa Fluor® 594 AffiniPure Goat Anti-Human IgG, Fcγ fragment specific) to each well, cultured cells at 4° C. (on ice) for 1 hour. Washing twice, transferred the cells to a flat bottom 96 well plate, and analyze the cells with CytoFLEX S. The antibody concentration was plotted with the logarithm of 10 as the abscissa and the median fluorescence value of two channels as the ordinate. The EC₅₀ (CHO-huTIGIT and CHO-mkTIGIT) and the peak value of the curve were compared.
Consider B3, for which it took 0.0792 µg/mL to reach a half-maximal effect (EC50).

In the case of B4, a half-maximal response (EC50) required 0.605 µg/mL.

Molecule B6 registered an EC50 of 0.857 µg/mL.

B7 displayed an EC50 of 0.00532 µg/mL.

The molecule B8 came in with an EC50 of 0.00887 µg/mL.

Regarding B9, the EC50 came out at 0.00958 µg/mL.

Consider B10, for which the EC50 was 0.00425 µg/mL.

The target of a further test is T2, human TIGIT expressed on CHO-K1 cells …. Description: flow cytometry competition on CHO-huTIGIT-eGFP cells; competitor biotinylated human CD155-Fc. On the procedure:
as §1, §2
The molecule B3 showed an IC50 of 0.8 µg/mL.

The molecule B4 came in with an IC50 of 0.973 µg/mL.

In the case of B5, the IC50 was determined as 1.18 µg/mL.

Consider B6, for which the IC50 came to 0.777 µg/mL.

Turning to B7, the IC50 was determined as 0.79 µg/mL.

For the molecule B8, the IC50 is 0.899 µg/mL.

B9 returned an IC50 of 1 µg/mL.

In turn, B10 gave an IC50 of 0.559 µg/mL.

For another test the target is unchanged. Description: flow cytometry on CHO-huTIGIT cells, anti-human IgG Fc Alexa Fluor 594. The method, then:
as §3, §4
Molecule B3 showed an EC50 of 0.00463 µg/mL.

For the molecule B4, the EC50 stood at 0.00602 µg/mL.

Regarding B5, the EC50 turned out to be 0.00549 µg/mL.

B6 showed an EC50 of 0.0043 µg/mL.

In turn, B7 had an EC50 of 0.00388 µg/mL.

With B8, the EC50 worked out at 0.00412 µg/mL.

As to B9, the EC50 was found to be 0.00459 µg/mL.

As for B10, the EC50 is 0.00349 µg/mL.

The next test has as its target T3, cynomolgus monkey TIGIT expressed on …. The experiment in a line: flow cytometry on CHO-mkTIGIT cells, anti-human IgG secondary antibody. The method, then: as §3, §4
With B3, the “EC50 (read off the curve)” value is approximately 1 µg/mL.

Regarding B7, the “EC50 (read off the curve)” value is approximately 0.005 µg/mL.

For B8, the “EC50 (read off the curve)” value was approximately 0.009 µg/mL.

With B9, the “EC50 (read off the curve)” value was approximately 0.009 µg/mL.

Consider B10, for which the “EC50 (read off the curve)” value was approximately 0.004 µg/mL.

A word on the EC50: it is the midpoint of the concentration-response curve. Broadly, the IC50 is the concentration that gives 50% inhibition. The EC50 (read off the curve) is the concentration giving half of the maximal effect.
